B1: MB3 (A3) mutant oligo (dsDNA)
DNA 1: ACTACAGACACCTGCCACCACACCCAA
DNA 2: TTGGGTGTGGTGGCAGGTGTCTGTAGT
modifications: [12]
B2: MB2 (A2) mutant oligo (dsDNA)
DNA 1: GCACAAGACAACTGCTTAGCAAACGGG
DNA 2: CCCGTTTGCTAAGCAGTTGTCTTGTGC
modifications: [11,12]
B3: MB1 (A1) mutant oligo (dsDNA)
DNA 1: GGGCCTGCCAACTGCACCCCGCCCGGG
DNA 2: CCCGGGCGGGGTGCAGTTGGCAGGCCC
modifications: [11,12]

Chain of GST-C92 Myc/Max heterodimer (P01106 363-454, chain 1 of 2): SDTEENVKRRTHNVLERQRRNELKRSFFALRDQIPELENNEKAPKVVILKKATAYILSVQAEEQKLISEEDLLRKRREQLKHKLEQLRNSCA
Chain of GST-C92 Myc/Max heterodimer (P61244 whole entry, chain 2 of 2, the tested form may be a part): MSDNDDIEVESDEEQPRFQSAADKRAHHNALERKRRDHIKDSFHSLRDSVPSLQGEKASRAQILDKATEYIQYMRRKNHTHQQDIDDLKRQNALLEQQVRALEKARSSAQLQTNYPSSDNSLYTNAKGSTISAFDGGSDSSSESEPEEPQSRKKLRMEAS

The target in the series is GST-C92 Myc/Max heterodimer (UniProt P01106;P61244 P01106:363-454,P61244:1-160). Nature of the series: competition; mutant oligo did not compete. Conditions: tags: GST on Myc C-terminal 92 aa (C92Myc). The text has this:
To test whether Myc/Max complexes could efficiently bind to the isolated sites, we performed electrophoretic mobility shift assays (EMSA) on each DNA fragment, confirming that they represent functional myc-binding elements in vitro. For instance, oligonucleotides, matching the Myc binding site from F1, F2 and from the second intron of the cdc25A (MB3) were also checked by EMSA. In this case, oligonucleotides corresponding to a wild type site and a single point mutant within the consensus sequence site were used to compete with the cdc25A sites. […] Similar results were obtained for MB2 and MB3.
For the identification of the Myc/Max binding sequences within the cdc25 genomic regions we utilized an affinity chromatography procedure, similar to immunoprecipitation procedures (Okamoto et al. (1994) EMBO J. 13:4816-4822). Briefly, cdc25 (A, B and C) genomic clones were digested with the Hinfl restriction endonuclease, end-labeled with p32 and further incubated with 10 ng of the GSTC92Myc/Max complexes in the binding buffer (Ayer et al. (1993) Cell 72:211-222), followed by incubation with 20 μl of glutathione sepharose for 30 min at 4° C. Isolated complexes were washed four times in the binding buffer, eluted with proteinase K digestion, treated with phenol/chloroform and further ethanol precipitated. Precipitated material was resuspended in 10-20 μl of TE and subjected to polyacrylamide gel (PAG) electrophoresis, followed by autoradiography. Total digests were treated the same way, except affinity chromatography on the glutathione beads, and run as a control on a gel on a parallel lane with the purified material. Electrophoretic mobility shift assays (EMSA) were done either with F1 or F2 fragments or with the synthetic oligonucleotides, corresponding to MB 1, MB2 or MB3 as described in the art, c. f., Ayer et al. (1993) Cell 72:211-222. Mutant oligonucleotides correspond to the same sequence as F1 and F2 with CATGTG changed to CAACTG (for A1 and A2) or CACGTG changed to CACCTG (for A3). CM-1 oligonucleotide has been described (Ayer et al. supra).
As for B1, the binding result is given as “no binding”. For the molecule B2, the binding result was “no binding”. Regarding B3, the binding result is given as “no binding”.
